# Laboratory results reported in US20190038623A1.
# How the values were obtained:
# [1] = biological target: complement component C3 (human) (UniProt P01024); test: cell-based or functional assay
# [2] = biological target: human complement component C5 (human) (UniProt P01031); test: cell-based or functional assay
substance,measurement,setting,value
Compstatin (peptide),"IC50 (µM), Inhibition of C3 Fragment deposition on artificial PNH cells (flow cytometry, anti-C3c staining, N = 2)",[1],2.2 µM
same,"IC50 (µM), Inhibition of C3 Fragment deposition on rabbit erythrocytes (flow cytometry, 20% C5-depleted normal human serum), N = 1",[1],1.4 µM
same,"Inhibition (%) of CAP activity, CAP-mediated hemolysis of rabbit erythrocytes, Experiment 2, Compstatin 0.469 µM, Compound 1 0 µM",[1],6.9%
same,"Inhibition (%) of CAP activity, CAP-mediated hemolysis of rabbit erythrocytes, Experiment 2, Compstatin 0.934 µM, Compound 1 0 µM",[1],6%
same,"Inhibition (%) of CAP activity, CAP-mediated hemolysis of rabbit erythrocytes, Experiment 2, Compstatin 1.88 µM, Compound 1 0 µM",[1],10%
same,"Inhibition (%) of CAP activity, CAP-mediated hemolysis of rabbit erythrocytes, Experiment 2, Compstatin 3.75 µM, Compound 1 0 µM",[1],15%
same,"Inhibition (%) of CAP activity, CAP-mediated hemolysis of rabbit erythrocytes, Experiment 2, Compstatin 7.5 µM, Compound 1 0 µM",[1],41%
same,"Inhibition (%) of CAP activity, CAP-mediated hemolysis of rabbit erythrocytes, Experiment 2, Compstatin 15 µM, Compound 1 0 µM",[1],80%
same,"Inhibition (%) of CAP activity, CAP-mediated hemolysis of rabbit erythrocytes, Experiment 2, Compstatin 30 µM, Compound 1 0 µM",[1],98%
same,"Inhibition (%) of CAP activity, CAP-mediated hemolysis of rabbit erythrocytes, Experiment 3, Compstatin 0.469 µM, Compound 1 0 µM",[1],13%
same,"Inhibition (%) of CAP activity, CAP-mediated hemolysis of rabbit erythrocytes, Experiment 3, Compstatin 0.934 µM, Compound 1 0 µM",[1],17%
same,"Inhibition (%) of CAP activity, CAP-mediated hemolysis of rabbit erythrocytes, Experiment 3, Compstatin 1.88 µM, Compound 1 0 µM",[1],25%
same,"Inhibition (%) of CAP activity, CAP-mediated hemolysis of rabbit erythrocytes, Experiment 3, Compstatin 3.75 µM, Compound 1 0 µM",[1],40%
same,"Inhibition (%) of CAP activity, CAP-mediated hemolysis of rabbit erythrocytes, Experiment 3, Compstatin 7.5 µM, Compound 1 0 µM",[1],63%
same,"Inhibition (%) of CAP activity, CAP-mediated hemolysis of rabbit erythrocytes, Experiment 3, Compstatin 15 µM, Compound 1 0 µM",[1],97%
same,"Inhibition (%) of CAP activity, CAP-mediated hemolysis of rabbit erythrocytes, Experiment 3, Compstatin 30 µM, Compound 1 0 µM",[1],98%
same,"Inhibition (%) of CAP activity, CAP-mediated hemolysis of rabbit erythrocytes, Experiment 4, Compstatin 0.469 µM, Compound 1 0 µM",[1],9%
same,"Inhibition (%) of CAP activity, CAP-mediated hemolysis of rabbit erythrocytes, Experiment 4, Compstatin 0.934 µM, Compound 1 0 µM",[1],12%
same,"Inhibition (%) of CAP activity, CAP-mediated hemolysis of rabbit erythrocytes, Experiment 4, Compstatin 1.88 µM, Compound 1 0 µM",[1],22%
same,"Inhibition (%) of CAP activity, CAP-mediated hemolysis of rabbit erythrocytes, Experiment 4, Compstatin 3.75 µM, Compound 1 0 µM",[1],34%
same,"Inhibition (%) of CAP activity, CAP-mediated hemolysis of rabbit erythrocytes, Experiment 4, Compstatin 7.5 µM, Compound 1 0 µM",[1],64%
same,"Inhibition (%) of CAP activity, CAP-mediated hemolysis of rabbit erythrocytes, Experiment 4, Compstatin 15 µM, Compound 1 0 µM",[1],98%
same,"Inhibition (%) of CAP activity, CAP-mediated hemolysis of rabbit erythrocytes, Experiment 4, Compstatin 30 µM, Compound 1 0 µM",[1],99%
same,"Inhibition (%) of CAP activity, CAP-mediated hemolysis of rabbit erythrocytes, Experiment #1, Compstatin 0.469 µM, Compound 1 0 µM",[1],7.3%
same,"Inhibition (%) of CAP activity, CAP-mediated hemolysis of rabbit erythrocytes, Experiment #1, Compstatin 0.934 µM, Compound 1 0 µM",[1],3.6%
same,"Inhibition (%) of CAP activity, CAP-mediated hemolysis of rabbit erythrocytes, Experiment #1, Compstatin 1.88 µM, Compound 1 0 µM",[1],8.6%
same,"Inhibition (%) of CAP activity, CAP-mediated hemolysis of rabbit erythrocytes, Experiment #1, Compstatin 3.75 µM, Compound 1 0 µM",[1],17%
same,"Inhibition (%) of CAP activity, CAP-mediated hemolysis of rabbit erythrocytes, Experiment #1, Compstatin 7.5 µM, Compound 1 0 µM",[1],38%
same,"Inhibition (%) of CAP activity, CAP-mediated hemolysis of rabbit erythrocytes, Experiment #1, Compstatin 15 µM, Compound 1 0 µM",[1],65%
same,"Inhibition (%) of CAP activity, CAP-mediated hemolysis of rabbit erythrocytes, Experiment #1, Compstatin 30 µM, Compound 1 0 µM",[1],98%
same,"Inhibition (%) of CAP-mediated hemolysis of PNH erythrocytes, Experiment 2, Compstatin 4.69 µM alone (Compound 1 0 µM)",[1],0%
same,"Inhibition (%) of CAP-mediated hemolysis of PNH erythrocytes, Experiment 2, Compstatin 9.38 µM alone (Compound 1 0 µM)",[1],0%
same,"Inhibition (%) of CAP-mediated hemolysis of PNH erythrocytes, Experiment 2, Compstatin 18.8 µM alone (Compound 1 0 µM)",[1],0%
same,"Inhibition (%) of CAP-mediated hemolysis of PNH erythrocytes, Experiment 2, Compstatin 37.5 µM alone (Compound 1 0 µM)",[1],0%
same,"Inhibition (%) of CAP-mediated hemolysis of PNH erythrocytes, Experiment 2, Compstatin 75 µM alone (Compound 1 0 µM)",[1],10%
same,"Inhibition (%) of CAP-mediated hemolysis of PNH erythrocytes, Experiment 2, Compstatin 150 µM alone (Compound 1 0 µM)",[1],71%
same,"Inhibition (%) of CAP-mediated hemolysis of PNH erythrocytes, Experiment 2, Compstatin 300 µM alone (Compound 1 0 µM)",[1],99%
same,"Inhibition (%) of CAP-mediated hemolysis of PNH erythrocytes, Experiment #1, Compstatin 4.69 µM alone (Compound 1 0 µM)",[1],0%
same,"Inhibition (%) of CAP-mediated hemolysis of PNH erythrocytes, Experiment #1, Compstatin 9.38 µM alone (Compound 1 0 µM)",[1],0%
same,"Inhibition (%) of CAP-mediated hemolysis of PNH erythrocytes, Experiment #1, Compstatin 18.8 µM alone (Compound 1 0 µM)",[1],0%
same,"Inhibition (%) of CAP-mediated hemolysis of PNH erythrocytes, Experiment #1, Compstatin 37.5 µM alone (Compound 1 0 µM)",[1],0%
same,"Inhibition (%) of CAP-mediated hemolysis of PNH erythrocytes, Experiment #1, Compstatin 75 µM alone (Compound 1 0 µM)",[1],9%
same,"Inhibition (%) of CAP-mediated hemolysis of PNH erythrocytes, Experiment #1, Compstatin 150 µM alone (Compound 1 0 µM)",[1],86%
same,"Inhibition (%) of CAP-mediated hemolysis of PNH erythrocytes, Experiment #1, Compstatin 300 µM alone (Compound 1 0 µM)",[1],98%
"murine monoclonal antibody to human C5, isotype IgG1K, product No. A217 from Quidel","Inhibition (%) of CAP activity, CAP Wieslab assay, Experiment 2, Anti-C5 0.781 µg/mL, Compound 1 0 µM",[2],8.1%
same,"Inhibition (%) of CAP activity, CAP Wieslab assay, Experiment 2, Anti-C5 1.56 µg/mL, Compound 1 0 µM",[2],20%
same,"Inhibition (%) of CAP activity, CAP Wieslab assay, Experiment 2, Anti-C5 3.13 µg/mL, Compound 1 0 µM",[2],46%
same,"Inhibition (%) of CAP activity, CAP Wieslab assay, Experiment 2, Anti-C5 6.25 µg/mL, Compound 1 0 µM",[2],61%
same,"Inhibition (%) of CAP activity, CAP Wieslab assay, Experiment 2, Anti-C5 12.5 µg/mL, Compound 1 0 µM",[2],75%
same,"Inhibition (%) of CAP activity, CAP Wieslab assay, Experiment 2, Anti-C5 25 µg/mL, Compound 1 0 µM",[2],85%
same,"Inhibition (%) of CAP activity, CAP Wieslab assay, Experiment 2, Anti-C5 50 µg/mL, Compound 1 0 µM",[2],90%
same,"Inhibition (%) of CAP activity, CAP Wieslab assay, Experiment 3, Anti-C5 0.781 µg/mL, Compound 1 0 µM",[2],10%
same,"Inhibition (%) of CAP activity, CAP Wieslab assay, Experiment 3, Anti-C5 1.56 µg/mL, Compound 1 0 µM",[2],16%
same,"Inhibition (%) of CAP activity, CAP Wieslab assay, Experiment 3, Anti-C5 3.13 µg/mL, Compound 1 0 µM",[2],31%
same,"Inhibition (%) of CAP activity, CAP Wieslab assay, Experiment 3, Anti-C5 6.25 µg/mL, Compound 1 0 µM",[2],45%
same,"Inhibition (%) of CAP activity, CAP Wieslab assay, Experiment 3, Anti-C5 12.5 µg/mL, Compound 1 0 µM",[2],64%
same,"Inhibition (%) of CAP activity, CAP Wieslab assay, Experiment 3, Anti-C5 25 µg/mL, Compound 1 0 µM",[2],79%
same,"Inhibition (%) of CAP activity, CAP Wieslab assay, Experiment 3, Anti-C5 50 µg/mL, Compound 1 0 µM",[2],90%
same,"Inhibition (%) of CAP activity, CAP Wieslab assay, Experiment #1, Anti-C5 0.547 µg/mL, Compound 1 0 µM",[2],11%
same,"Inhibition (%) of CAP activity, CAP Wieslab assay, Experiment #1, Anti-C5 1.09 µg/mL, Compound 1 0 µM",[2],11%
same,"Inhibition (%) of CAP activity, CAP Wieslab assay, Experiment #1, Anti-C5 2.19 µg/mL, Compound 1 0 µM",[2],27%
same,"Inhibition (%) of CAP activity, CAP Wieslab assay, Experiment #1, Anti-C5 4.38 µg/mL, Compound 1 0 µM",[2],47%
same,"Inhibition (%) of CAP activity, CAP Wieslab assay, Experiment #1, Anti-C5 8.75 µg/mL, Compound 1 0 µM",[2],60%
same,"Inhibition (%) of CAP activity, CAP Wieslab assay, Experiment #1, Anti-C5 17.5 µg/mL, Compound 1 0 µM",[2],76%
same,"Inhibition (%) of CAP activity, CAP Wieslab assay, Experiment #1, Anti-C5 35 µg/mL, Compound 1 0 µM",[2],87%
